Source: patent US20240115603A1 (Zymeworks, published 2024)

Columns and labels:
Assay in all cases: co-expression in Tni insect cells, pulldown via Twin Strep tag on G-CSF, SDS-PAGE
[1] = biological target: T1, G-CSFR(CRH)E site II design 35 with N-terminal His tag (human)
T1 construct: also called design #35 G-CSFR(CRH)E
T1 chain: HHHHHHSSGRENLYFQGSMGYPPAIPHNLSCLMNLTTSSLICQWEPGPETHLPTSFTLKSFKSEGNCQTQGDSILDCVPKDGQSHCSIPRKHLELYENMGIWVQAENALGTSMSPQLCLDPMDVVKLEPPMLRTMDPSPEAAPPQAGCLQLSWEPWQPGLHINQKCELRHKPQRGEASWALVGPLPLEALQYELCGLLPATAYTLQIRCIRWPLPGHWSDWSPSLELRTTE

[2] = biological target: T2, G-CSFR(CRH)E site II design 9 with N-terminal His tag (human)
T2 construct: also called design #9 G-CSFR(CRH)E
T2 chain: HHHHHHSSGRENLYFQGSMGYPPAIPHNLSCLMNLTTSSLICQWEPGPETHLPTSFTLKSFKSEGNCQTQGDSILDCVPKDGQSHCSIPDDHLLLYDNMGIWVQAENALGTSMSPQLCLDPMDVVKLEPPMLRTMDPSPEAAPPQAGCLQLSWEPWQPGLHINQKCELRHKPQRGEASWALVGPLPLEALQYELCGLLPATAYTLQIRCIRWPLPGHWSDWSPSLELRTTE

[3] = biological target: T3, G-CSFR(Ig-CRH)E combination design 401 with N-terminal His tag (human, UniProt Q99062 25-331)
T3 construct: also called design 401 engineered receptor
T3 chain: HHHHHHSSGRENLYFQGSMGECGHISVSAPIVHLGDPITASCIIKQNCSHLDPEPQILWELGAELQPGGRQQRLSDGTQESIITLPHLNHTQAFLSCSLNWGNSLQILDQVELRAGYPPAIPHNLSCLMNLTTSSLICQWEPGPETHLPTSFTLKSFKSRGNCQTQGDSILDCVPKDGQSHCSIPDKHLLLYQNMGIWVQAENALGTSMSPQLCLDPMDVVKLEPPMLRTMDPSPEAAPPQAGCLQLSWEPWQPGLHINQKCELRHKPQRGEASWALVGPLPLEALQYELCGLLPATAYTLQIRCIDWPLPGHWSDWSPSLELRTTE

[4] = biological target: T4, G-CSFR(CRH)E site II design 34 with N-terminal His tag (human, UniProt Q99062 120-331)
T4 construct: also called design #34 G-CSFR(CRH)E
T4 chain: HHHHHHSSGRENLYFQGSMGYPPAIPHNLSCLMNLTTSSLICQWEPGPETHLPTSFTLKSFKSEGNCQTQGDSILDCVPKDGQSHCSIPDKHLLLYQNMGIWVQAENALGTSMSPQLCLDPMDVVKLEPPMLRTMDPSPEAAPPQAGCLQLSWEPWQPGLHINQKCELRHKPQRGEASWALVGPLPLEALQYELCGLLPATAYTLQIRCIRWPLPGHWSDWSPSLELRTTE

[5] = biological target: T5, G-CSFR(CRH)E site II design 15 with N-terminal His tag (human)
T5 construct: also called design #15 G-CSFR(CRH)E
T5 chain: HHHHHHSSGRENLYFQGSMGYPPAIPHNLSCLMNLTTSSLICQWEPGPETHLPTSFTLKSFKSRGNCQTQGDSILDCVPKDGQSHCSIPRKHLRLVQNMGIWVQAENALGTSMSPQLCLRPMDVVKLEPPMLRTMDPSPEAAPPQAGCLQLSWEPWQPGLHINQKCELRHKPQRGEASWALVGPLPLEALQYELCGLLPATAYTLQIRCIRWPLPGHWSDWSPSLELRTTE

[6] = biological target: T6, G-CSFR(CRH)E site II design 8 with N-terminal His tag (human)
T6 construct: also called design #8 G-CSFR(CRH)E
T6 chain: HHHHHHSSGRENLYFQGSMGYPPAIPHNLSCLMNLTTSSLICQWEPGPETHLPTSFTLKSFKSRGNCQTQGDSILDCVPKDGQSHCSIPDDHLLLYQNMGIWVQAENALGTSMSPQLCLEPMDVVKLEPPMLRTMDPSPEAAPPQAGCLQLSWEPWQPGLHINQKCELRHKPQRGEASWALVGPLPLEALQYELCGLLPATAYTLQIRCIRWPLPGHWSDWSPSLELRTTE

[7] = biological target: T7, G-CSFR(Ig-CRH)E combination design 402 with N-terminal His tag (human, UniProt Q99062 25-331)
T7 construct: also called design 402 engineered receptor
T7 chain: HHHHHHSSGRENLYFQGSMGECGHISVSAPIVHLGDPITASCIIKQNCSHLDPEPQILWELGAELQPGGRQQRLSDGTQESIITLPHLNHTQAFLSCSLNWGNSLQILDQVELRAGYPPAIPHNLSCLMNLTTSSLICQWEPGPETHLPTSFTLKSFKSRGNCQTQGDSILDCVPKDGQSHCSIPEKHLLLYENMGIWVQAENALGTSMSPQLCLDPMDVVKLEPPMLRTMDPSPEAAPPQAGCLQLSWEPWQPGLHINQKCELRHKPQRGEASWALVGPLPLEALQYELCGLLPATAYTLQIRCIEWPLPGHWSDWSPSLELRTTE

[8] = biological target: T8, G-CSFR(CRH)E site II design 30 with N-terminal His tag (human, UniProt Q99062 120-331)
T8 construct: also called design #30 G-CSFR(CRH)E
T8 chain: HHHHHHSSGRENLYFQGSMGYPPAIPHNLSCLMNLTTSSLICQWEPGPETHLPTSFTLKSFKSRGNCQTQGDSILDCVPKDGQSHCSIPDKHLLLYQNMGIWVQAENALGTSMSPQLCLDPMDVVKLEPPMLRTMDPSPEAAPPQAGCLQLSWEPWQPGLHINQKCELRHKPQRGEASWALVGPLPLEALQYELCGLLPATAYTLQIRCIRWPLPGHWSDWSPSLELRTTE

Measured: binding result

B1: WT G-CSF with C-terminal Twin Strep tag (ligand)
chain: not shown
notes: also called G-CSFWT
no binding: [1] | [2] | [3] | [4] | [5] | [6] | [7] | [8]
